The values below come from patent US20170049855A1 (NEW YORK UNIVERSITY, published 2017).

One may read the Kd as the concentration at which binding is half-saturated. A word on the EC50 (read off the curve): it is the concentration needed to bring the measured effect to its halfway point.

T1: mouse GBA (endogenous, lung tissue) (mouse, UniProt P17439 20-515)
T1 construct: Endogenous protein precipitated or detected with anti-GBA antibody; also called glucocerebrosidase
T1 sequence (looked up): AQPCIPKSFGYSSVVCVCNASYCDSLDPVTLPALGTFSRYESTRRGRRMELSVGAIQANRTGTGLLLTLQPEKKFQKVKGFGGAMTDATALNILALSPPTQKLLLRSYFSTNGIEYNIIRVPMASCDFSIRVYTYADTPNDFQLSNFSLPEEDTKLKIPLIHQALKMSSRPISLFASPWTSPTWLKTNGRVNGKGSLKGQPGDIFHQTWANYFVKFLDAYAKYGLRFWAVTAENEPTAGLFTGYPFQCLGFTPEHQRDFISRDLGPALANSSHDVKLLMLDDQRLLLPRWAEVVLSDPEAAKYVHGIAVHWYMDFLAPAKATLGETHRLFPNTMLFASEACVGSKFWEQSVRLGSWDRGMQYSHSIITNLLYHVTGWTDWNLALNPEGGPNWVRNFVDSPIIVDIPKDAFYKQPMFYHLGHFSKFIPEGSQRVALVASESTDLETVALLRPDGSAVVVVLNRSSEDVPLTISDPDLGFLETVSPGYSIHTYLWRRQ

B1: Recombinant LIMP2 (R&D Systems Cat. No. 1966-LM-050) (receptor, UniProt Q14108 27-432, looked up)
chain: RVFQKAVDQSIEKKIVLRNGTEAFDSWEKPPLPVYTQFYFFNVTNPEEILRGETPRVEEVGPYTYRELRNKANIQFGDNGTTISAVSNKAYVFERDQSVGDPKIDLIRTLNIPVLTVIEWSQVHFLREIIEAMLKAYQQKLFVTHTVDELLWGYKDEILSLIHVFRPDISPYFGLFYEKNGTNDGDYVFLTGEDSYLNFTKIVEWNGKTSLDWWITDKCNMINGTDGDSFHPLITKDEVLYVFPSDFCRSVYITFSDYESVQGLPAFRYKVPAEILANTSDNAGFCIPEGNCLGSGVLNVSICKNGAPIIMSFPHFYQADERFVSAIEGMHPNQEDHETFVDINPLTGIILKAAKRFQINIYVKKLDDFVETGDIRTMVFPVMYLNESVHIDKETASRLKSMINTT
modifications: biotin-labeled (EZ-Link Sulfo-NHS-LC-Biotin)
notes: Bought protein; also called Lysosomal integral membrane protein 2
B2: mouse LIMP2 (endogenous, lung tissue) (receptor, UniProt O35114 1-478, looked up)
chain: MGRCCFYTAGTLSLLLLVTSVTLLVARVFQKAVDQTIEKNMVLQNGTKVFNSWEKPPLPVYIQFYFFNVTNPEEILQGEIPLLEEVGPYTYRELRNKANIQFGENGTTISAVTNKAYVFERNQSVGDPNVDLIRTINIPLLTVVDLAQLTLLRELIEAMLKAYQQKLFVIHTVHELLWGYKDEILSLVHIFKPDVSPNFGLFYERNGTNDGEYVFLTGEDNYLNFSKIVEWNGKTSLDWWTTDTCNMINGTDGDSFHPLISKDEVLYLFPSDLCRSVHITFSSFENVEGLPAFRYKVPAEILANTSENAGFCIPEGNCMDSGVLNISICKNGAPIIMSFPHFYQADEKFVSAIKGMHPNKEEHESFVDINPLTGIILRGAKRFQINTYVRKLDDFVETGDIRTMVFPVMYLNESVLIDKETANQLKSVINTTLVVTNIPYIIMALGVFFGLVFTWLACRGQGSMDEGTADERAPLIRT
notes: Endogenous protein in lung lysate; also called Lysosomal integral membrane protein 2
B3: Recombinant His-tag PGRN protein (recombinant human progranulin) (ligand)
chain: TRCPDGQFCPVACCLDPGGASYSCCRPLLDKWPTTLSRHLGGPCQVDAHCSAGHSCIFTVSGTSSCCPFPEAVACGDGHHCCPRGFHCSADGRSCFQRSGNNSVGAIQCPDSQFECPDFSTCCVMVDGSWGCCPMPQASCCEDRVHCCPHGAFCDLVHTRCITPTGTHPLAKKLPAQRTNRAVALSSSVMCPDARSRCPDGSTCCELPSGKYGCCPMPNATCCSDHLHCCPQDTVCDLIQSKCLSKENATTDLLTKLPAHTVGDVKCDMEVSCPDGYTCCRLQSGAWGCCPFTQAVCCEDHIHCCPAGFTCDTQKGTCEQGPHQVPWMEKAPAHLSLPDPQALKRDVPCDNVSSCPSSDTCCQLTSGEWGCCPIPEAVCCSDHQHCCPQGYTCVAEGQCQRGSEIVAGLEKMPARRASLSHPRDIGCDQHTSCPVGQTCCPSLGGSWACCQLPHAVCCEDRQHCCPAGYTCNVKARSCEKEVVSAQPATFLARSPHVGVKDVECGEGHFCHDNQTCCRDNRQGWACCPYRQGVCCADRRHCCPAGFRCAARGTKCLRREAPRWDAPLRDPALRQLL
notes: Coated on the plate in the solid phase assay; analyte (200 nM) in SPR; also called rPGRN; His-tagged PGRN; not shown: His tag
B4: Recombinant GBA (R&D Systems Cat. No. 7410-GH-010) (enzyme, UniProt P04062 40-536, looked up)
chain: ARPCIPKSFGYSSVVCVCNATYCDSFDPPTFPALGTFSRYESTRSGRRMELSMGPIQANHTGTGLLLTLQPEQKFQKVKGFGGAMTDAAALNILALSPPAQNLLLKSYFSEEGIGYNIIRVPMASCDFSIRTYTYADTPDDFQLHNFSLPEEDTKLKIPLIHRALQLAQRPVSLLASPWTSPTWLKTNGAVNGKGSLKGQPGDIYHQTWARYFVKFLDAYAEHKLQFWAVTAENEPSAGLLSGYPFQCLGFTPEHQRDFIARDLGPTLANSTHHNVRLLMLDDQRLLLPHWAKVVLTDPEAAKYVHGIAVHWYLDFLAPAKATLGETHRLFPNTMLFASEACVGSKFWEQSVRLGSWDRGMQYSHSIITNLLYHVVGWTDWNLALNPEGGPNWVRNFVDSPIIVDITKDTFYKQPMFYHLGHFSKFIPEGSQRVGLVASQKNDLDAVALMHPDGSAVVVVLNRSSKDVPLTIKDPAVGFLETISPGYSIHTYLWRRQ
modifications: biotin-labeled (EZ-Link Sulfo-NHS-LC-Biotin) in the solid phase binding assay only
notes: Bought protein; Immobilised on the COOH1 chip in SPR; also called glucocerebrosidase; beta-glucocerebrosidase
B5: mouse alpha-galactosidase A (endogenous, lung tissue) (enzyme, UniProt P51569 32-419, looked up)
chain: LDNGLARTPTMGWLHWERFMCNLDCQEEPDACISEQLFMQMAELMVSDGWRDAGYDYLCIDDCWMAPERDSKGRLQADPQRFPSGIKHLANYVHSKGLKLGIYADVGNKTCAGFPGSFGSYDIDAQTFADWGVDLLKFDGCHCDSVVSLENGYKYMALALNRTGRSIVYSCEWPLYLRPFHKPNYTDIQYYCNHWRNFDDVYDSWESIKNILSWTVVYQKEIVEVAGPGSWNDPDMLVIGNFGLSWDQQVTQMALWAIMAAPLLMSNDLRQISSQAKALLQNKDVIAINQDPLGKQGYCFRKENHIEVWERPLSNLAWAVAVRNLQEIGGPCPYTIQISSLGRGLACNPGCIITQLLPEKVHLGFYEWTLTLKTRVNPSGTVLFRLER
notes: Endogenous protein in lung lysate; also called GLA; alpha-GLA

For assay [1], the target named is B3. Put plainly: solid phase binding assay: PGRN coated at the concentration on the x axis (µg/ml), biotin-labeled LIMP2 added, streptavidin-HRP, OD 450 nm. As to the method: (§1) The plate was washed with 0.1% tween/PBS five times and then blocked with 2% BSA/PBS solution. […] Wash with 0.1% tween/PBS, and coated with streptavidin-HRP (1:2000 dilution) solution for 1 hour. After washing add t h e substrate and stop the reaction with 100 μl 2M H₂SO₄. Read result at UV 450 nm in plate reader.

Assay [2] concerns the target T1, mouse GBA (endogenous, lung tissue). Put plainly: co-immunoprecipitation from lung lysate of WT and PGRN KO mice, IP: GBA, IB: LIMP2.
For assay [3], the target named is T2, Recombinant sortilin (R&D Systems Cat. No. 3154-ST-050) (UniProt Q99523 78-755).
T2 construct: Bought protein; Immobilised on channel 1 of the chip in SPR
In words: SPR, SensiQ Pioneer, COOH1 chip, Sortilin immobilised, PGRN as analyte (data not shown).

Assay [4] has as its target B4. In words: solid phase binding assay: PGRN coated at the concentration on the x axis (µg/ml), biotin-labeled GBA added, streptavidin-HRP, OD 450 nm. The procedure:
as §1

Assay [5] concerns the target B3. Put plainly: SPR (SensiQ Pioneer), GBA immobilised, PGRN injected, running buffer pH 5.5. As to the method: (§2) All SPR experiments were done by SensiQ Technologies Inc. (Oklahoma City, Okla.) by using SensiQ Pioneer at a controlled analysis temperature of 25° C., and samples in the instrument sample racks were maintained at 18° C. The running buffer throughout the immobilization and the assay consisted of 10 mM HEPES, 150 mM NaCl, 0.005% Tween 20.
(§3) Data was analyzed using the QDat Analysis Software (SensiQ Technologies and BioLogic Software). All data were double referenced to a reference channel (channel 2) and buffer blanks. The average signal of the buffer blanks was used to subtract injection artifacts. Referenced SPR data from the analysis channels were model fit to ascertain ka, kd, and KD for the interactions.

The target in assay [6] is B3. Put plainly: SPR (SensiQ Pioneer), GBA immobilised, PGRN injected, running buffer pH 6.0. As to the method: as §2, §3
In assay [7] the target is B3. In words: SPR (SensiQ Pioneer), GBA immobilised, PGRN injected, running buffer pH 6.5. The procedure: as §2, §3
Assay [8] has as its target B3. In words: SPR (SensiQ Pioneer), GBA immobilised, PGRN injected, running buffer pH 7.4. The procedure: as §2, §3
Assay [9] has as its target T3, mouse Sortilin (endogenous, lung tissue) (mouse, UniProt Q6PHU5 74-825).
T3 construct: Endogenous protein in lung lysate
Put plainly: co-immunoprecipitation from lung lysate of WT and PGRN KO mice, IP: Sortilin, IB: GLA.

T3 sequence (Q6PHU5 74-825 limits assumed): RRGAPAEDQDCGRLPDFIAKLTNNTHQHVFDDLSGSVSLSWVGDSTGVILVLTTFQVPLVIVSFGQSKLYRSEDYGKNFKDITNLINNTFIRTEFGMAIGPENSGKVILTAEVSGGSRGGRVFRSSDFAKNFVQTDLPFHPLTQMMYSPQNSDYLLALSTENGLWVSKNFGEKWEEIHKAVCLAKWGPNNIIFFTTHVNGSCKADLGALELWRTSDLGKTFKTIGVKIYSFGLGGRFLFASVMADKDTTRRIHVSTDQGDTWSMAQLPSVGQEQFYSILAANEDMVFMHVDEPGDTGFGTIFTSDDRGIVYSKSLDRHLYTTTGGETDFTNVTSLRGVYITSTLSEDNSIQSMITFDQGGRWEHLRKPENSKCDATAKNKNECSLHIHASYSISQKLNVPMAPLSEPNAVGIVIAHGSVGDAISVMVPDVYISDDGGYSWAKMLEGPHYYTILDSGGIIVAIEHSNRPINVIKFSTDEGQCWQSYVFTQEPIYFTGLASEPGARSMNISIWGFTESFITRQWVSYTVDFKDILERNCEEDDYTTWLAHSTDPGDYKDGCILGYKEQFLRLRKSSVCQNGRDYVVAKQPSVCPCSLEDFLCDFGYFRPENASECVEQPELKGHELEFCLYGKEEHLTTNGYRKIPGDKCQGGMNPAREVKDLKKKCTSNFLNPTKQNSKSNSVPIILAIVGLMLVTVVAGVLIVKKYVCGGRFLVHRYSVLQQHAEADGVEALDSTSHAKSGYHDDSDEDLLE

For B1, the binding result in [1] was “no binding (tested: 5 µg/ml)”. Consider B2, for which, in assay [2], the binding result is on record as “binds”. On to B3, for which the Kd in [3] was determined as 3.67 nM. Also, the 50% effective concentration (EC50 (read off the curve)) in [4] is about 1 µg/mL.

Turning to B4, the Kd in assay [5] is 55 nM; in [6], 16.9 nM; in assay [7], 20.8 nM; in assay [8], 0.71 nM.

Consider B5, for which the binding result in [9] is “binds”.
